Experimental data reported in publication PMC8441410, “Phospho‐regulated Bim1/EB1 interactions trigger Dam1c ring assembly at the budding yeast outer kinetochore” (The EMBO Journal, 2021).

T1: Bik1-6xHis (S. cerevisiae, UniProt P11709 1-440)
T1 construct: Bik1, S. cerevisiae CLIP-170 homolog; Detected with an anti-penta-His antibody in SEC fractions; also called Bik1/CLIP-170; source: E. coli BL21 Rosetta, purified (HisTrap, gel filtration)
T1 sequence (looked up): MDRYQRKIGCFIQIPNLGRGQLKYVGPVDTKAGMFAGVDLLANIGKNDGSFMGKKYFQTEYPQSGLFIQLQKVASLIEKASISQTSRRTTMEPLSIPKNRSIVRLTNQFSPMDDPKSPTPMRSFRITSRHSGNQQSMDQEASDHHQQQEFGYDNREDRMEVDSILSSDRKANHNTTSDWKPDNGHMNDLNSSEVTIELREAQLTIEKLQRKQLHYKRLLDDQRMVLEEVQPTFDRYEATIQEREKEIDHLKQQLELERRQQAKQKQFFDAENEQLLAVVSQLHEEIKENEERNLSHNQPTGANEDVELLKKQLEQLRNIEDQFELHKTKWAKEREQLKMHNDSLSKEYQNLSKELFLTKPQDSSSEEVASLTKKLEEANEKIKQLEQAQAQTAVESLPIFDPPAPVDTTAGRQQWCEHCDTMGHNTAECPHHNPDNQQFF

B1: Spc19 subunit within recombinant Dam1^WTc (natural protein, S. cerevisiae, UniProt Q03954 1-165, looked up)
chain: MTDALEQSVLALEGTVSVLKDSVESLKCANEPSTNLASTMLQTKRVFRLVPEYDVERSKLDLIEEVEPLVRTLGDKLRKSMGRMQRELDTLQQTYELNDLRLKKNISMDDDDALNSPDMGQEYEGRDADDVVMMASSTNEELEELKKLKEKKKQLENKLEILKQK
notes: Spc19, subunit of the Dam1 complex, S. cerevisiae; Stood in the cross-linking experiment as a subunit of m1; source: E. coli, purified as part of Dam1c
B2: Spc34 subunit within recombinant Dam1^WTc (natural protein, S. cerevisiae, UniProt P36131 1-295, looked up)
chain: MGESLDRCIDDINRAVDSMSTLYFKPPGIFHNAILQGASNKASIRKDITRLIKDCNHDEAYLLFKVNPEKQSVSRRDGKEGVFDYVIKRDTDMKRNRRLGRPGEKPIIHVPKEVYLNKDRLDLNNKRRRTATTSGGGLNGFIFDTDLIGSSVISNSSSGTFKALSAVFKDDPQIQRLLYALENGSVLMEEESNNQRRKTIFVEDFPTDLILKVMAEVTDLWPLTEFKQDYDQLYHNYEQLSSKLRFIKKEVLLQDDRLKTMSQYHPSSSHDVAKIIRKEKDEIRRLEMEIANLQE
notes: Spc34, subunit of the Dam1 complex, S. cerevisiae; Stood in the cross-linking experiment as a subunit of m1; source: E. coli, purified as part of Dam1c
B3: Dam1 subunit within recombinant Dam1^WTc (natural protein, S. cerevisiae, UniProt P53267 1-343, looked up)
chain: MSEDKAKLGTTRSATEYRLSIGSAPTSRRSSMGESSSLMKFADQEGLTSSVGEYNENTIQQLLLPKIRELSDSIITLDSNFTRLNFIHESLADLNESLGSLLYGIMSNSWCVEFSQAPHDIQDDLIAIKQLKSLEDEKNNLVMELSNMERGIKRKKDEQGENDLAKASQNKQFNQPLFPSSQVRKYRSYDNRDKRKPSKIGNNLQVENEEDYEDDTSSEASFVLNPTNIGMSKSSQGHVTKTTRLNNNTNSKLRRKSILHTIRNSIASGADLPIENDNVVNLGDLHPNNRISLGSGAARVVNGPVTKNRNSMFSGRAERKPTESRHSVAKKTEKKINTRPPFR
notes: Dam1, subunit of the Dam1 complex, S. cerevisiae; Stood in the cross-linking experiment as a subunit of m1; source: E. coli, purified as part of Dam1c
B4: Bim1 (yeast homolog of EB1), recombinant (natural protein, S. cerevisiae, UniProt P40013 1-344, looked up)
chain: MSAGIGESRTELLTWLNGLLNLNYKKIEECGTGAAYCQIMDSIYGDLPMNRVKFNATAEYEFQTNYKILQSCFSRHGIEKTVYVDKLIRCKFQDNLEFLQWLKKHWIRHKDESVYDPDARRKYRPIITNNSATKPRTVSNPTTAKRSSSTGTGSAMSGGLATRHSSLGINGSRKTSVTQGQLVAIQAELTKSQETIGSLNEEIEQYKGTVSTLEIEREFYFNKLRDIEILVHTTQDLINEGVYKFNDETITGHGNGNGGALLRFVKKVESILYATAEGFEMNDGEDELNDKNLGEHGTVPNQGGYANSNGEVNGNEGSNHDVIMQNDEGEVGVSNNLIIDEETF
notes: Bim1, S. cerevisiae microtubule plus end-tracking protein; CH domain, linker, coiled coil, EBH domain, C-terminal ETF; also called Bim1/EB1; source: E. coli, purified (GSTrap, further steps as in Zimniak et al 2009)
B5: Duo1 subunit within recombinant Dam1^WTc (natural protein, S. cerevisiae, UniProt P53168 1-247, looked up)
chain: MSEQSQLDDSTIDKLIPQIFNEMRSNLNNTTNKFPKSTGGGASDNISANSNSIRSFNSITTQSLLKESESLDKITAMIKNVTAALKNNLPVYVNQVHEVCKSTNSILDSWINIHSQAGYIHKLMSDQTYLKLINDRLHNENVNTNDEDGSTLHNVIALKKKEILDLRQKLENRKGEKDAAPAKPPNQGLNPRYGVQSGRRPVPSAGISNNGRVRKTHVPASKRPSGIPRVTNRWTKPTASSSRKMFR
notes: Duo1, subunit of the Dam1 complex, S. cerevisiae; Stood in the cross-linking experiment as a subunit of m1; source: E. coli, purified as part of Dam1c
B6: Dad4 subunit within recombinant Dam1^WTc (natural protein, S. cerevisiae, UniProt P69851 1-72, looked up)
chain: MENPHEQVQANILSRIIGNVKRLNESVAILNQELVTINNRNKNLEIMGAICDNYHSSVQFNLEATNNKKPPL
notes: Dad4, subunit of the Dam1 complex, S. cerevisiae; Stood in the cross-linking experiment as a subunit of m1; source: E. coli, purified as part of Dam1c

What was measured:
[1] = target: B4; experiment: cross-linking; BS3-H12/D12 600 µM, 35°C, 45 min; 60 µg Dam1c without or with 7.4 µg Bim1; cross-linked lysines identified by mass spectrometry; conditions: both partners purified
[2] = target: B5; experiment: as above; conditions: both partners purified
Bik1-6xHis = target: T1, Bik1-6xHis; experiment: SEC; analytical, Superose 6 Increase 3.2/300; 25 mM HEPES pH 7.4, 200 mM NaCl, 1 mM MgCl2, 0.5 mM TCEP, 2.5% glycerol; fractions by SDS-PAGE or Western blot; Dam1c with Bim1-Bik1 also at 5, 7.5, 10 µM input and at 100 mM NaCl; conditions: both partners purified
[3] = target: Dam1 complex, wild type (Dam1^WTc), recombinant, with Hsk3-6xHis (S. cerevisiae) (UniProt P53267); experiment: pull-down; Ndc80c-Flag on anti-Flag M2 agarose beads (loaded from Sf9 lysate, washed); Dam1c or Bim1 alone or Dam1c pre-incubated with increasing Bim1 (up to 16 µM), 4°C 15 min; 25 mM HEPES pH 7.4, 200 mM NaCl, 0.01% Triton X-100; eluted with 3xFlag peptide, SDS-PAGE
[4] = target: B2; experiment: cross-linking; BS3-H12/D12 600 µM, 35°C, 45 min; 60 µg Dam1c without or with 7.4 µg Bim1; cross-linked lysines identified by mass spectrometry; conditions: both partners purified
[5] = target: B3; experiment: as above; conditions: both partners purified

| binding result [1] | Binder | other results |
| --- | --- | --- |
| binds | B1 | binding result [2]: binds |
| binds | B2 |  |
| binds | B3 |  |
|  | B4 | binding result (Bik1-6xHis): binds; decrease of the amount of Dam1c bound to Ndc80c with Bim1 up to 16 µM [3]: 30% |
| binds | B5 | binding result [4]: binds; binding result [5]: binds |
| binds | B6 |  |
